Assay results published in paper doi:10.1101/093054 (bioRxiv, 2016).

T1: SPD-5::TagRFP (C. elegans, UniProt P91349 1-1198)
T1 sequence (looked up): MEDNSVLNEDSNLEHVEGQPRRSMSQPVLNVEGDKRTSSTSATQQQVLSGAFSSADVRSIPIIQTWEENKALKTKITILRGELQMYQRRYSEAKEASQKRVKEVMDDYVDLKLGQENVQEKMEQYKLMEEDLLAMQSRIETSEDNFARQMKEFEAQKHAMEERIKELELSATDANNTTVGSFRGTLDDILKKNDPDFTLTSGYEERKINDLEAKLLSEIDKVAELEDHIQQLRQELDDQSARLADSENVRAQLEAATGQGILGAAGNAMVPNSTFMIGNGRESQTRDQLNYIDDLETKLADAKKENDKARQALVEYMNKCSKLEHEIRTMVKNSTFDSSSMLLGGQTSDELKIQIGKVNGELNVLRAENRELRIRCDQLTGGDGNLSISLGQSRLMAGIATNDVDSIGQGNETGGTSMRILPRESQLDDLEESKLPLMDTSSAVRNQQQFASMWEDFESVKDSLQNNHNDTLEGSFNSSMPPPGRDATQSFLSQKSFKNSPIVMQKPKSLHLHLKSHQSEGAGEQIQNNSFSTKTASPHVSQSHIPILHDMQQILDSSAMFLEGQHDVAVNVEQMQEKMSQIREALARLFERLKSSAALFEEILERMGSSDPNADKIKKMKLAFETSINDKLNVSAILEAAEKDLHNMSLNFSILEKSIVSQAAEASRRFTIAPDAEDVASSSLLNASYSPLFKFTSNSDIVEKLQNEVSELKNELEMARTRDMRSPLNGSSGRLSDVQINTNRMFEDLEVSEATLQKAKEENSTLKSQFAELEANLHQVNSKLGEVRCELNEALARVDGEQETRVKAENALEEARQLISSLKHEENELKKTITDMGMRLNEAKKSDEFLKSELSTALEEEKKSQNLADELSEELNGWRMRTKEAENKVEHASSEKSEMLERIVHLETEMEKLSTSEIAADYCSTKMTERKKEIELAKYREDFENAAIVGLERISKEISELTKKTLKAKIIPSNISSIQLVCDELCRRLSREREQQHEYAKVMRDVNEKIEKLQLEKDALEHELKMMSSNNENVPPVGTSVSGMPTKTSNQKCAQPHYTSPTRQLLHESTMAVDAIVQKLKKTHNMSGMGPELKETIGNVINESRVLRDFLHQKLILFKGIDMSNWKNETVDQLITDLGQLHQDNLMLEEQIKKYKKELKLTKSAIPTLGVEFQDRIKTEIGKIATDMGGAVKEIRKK

T2: SPD-5::TagRFP (C. elegans), P91349
T2 chain: T1 sequence (looked up)

B1: ZYG-9::GFP (natural protein, C. elegans, UniProt G5EEM5 1-1415, looked up)
chain: MSNWDYLDEVDILPKLPPNFDELRESKKWQERKEALEALLKVLTDNERLSTKASYAELIGHLQMVLAKDANINCQALAAKCIGKFATGLRAKFSSFAGPLLPVIFEKMKEKKPMLREPLVDCSNEVGRTMQSLETGQEDILAALAKPNPQIKQQTALFVARQLDLVVPAKQPKGFIKAVVPVFGKLTGDADQDVREASLQGLGAVQRIIGDKNVKNLLGDASSDEGKMKKIGEYAEKSTASFAEEQAKNAPPVAPTSSTPSASAASGDPSGGTATAVVSSGAPVAEADPWDFLDAFDVLSKMPDGFDTNIESKKWQERKEALEGLLQLITANPKLDPKANYGALVERLQKVLEKDANINVAALAANCITGIANGLRTKFQPFAVSVTPIIFEKFKEKKPTLRDPLVACIDAVVATTNLEAVGEIVLAALGKPNPSIKTQTDLFLQRCFMKLNSQTMPKKTLKTLIPSLIKHSGDSDSEVREASYAAMGAMMRAIGEKPSLQLLADIASDNLKMSKIKEFHQKALDEAGPAEIAEMVKSIHKADAPPAAAPPKKTAPPKKQPEDEEVVEEEDEPLKPPPGDKKKKVPVKENEENEPPVVAPKAELLLSDNEDKKQRIKEEKQLKLVKWNFQAPTDEHISQLQTLLGNQAKVSLMSQLFHKDFKQHLAALDSLVRLADTSPRSLLSNSDLLLKWCTLRFFETNPAALIKVLELCKVIVELIRDTETPMSQEEVSAFVPYLLLKTGEAKDNMRTSVRDIVNVLSDVVGPLKMTPMLLDALKSKNARQRSECLLVIEYYITNAGISPLKSLSVEKTVAPFVGDKDVNVRNAAINVLVACFKFEGDQMWKAAGRMADKDKSLVEERIKRTGVKPGSGVVTSPPTGGPKILVPQQQGSVVRRPASRSRTREPEPEEVQSDTFTIRQDTMPPKTSSRYALRDDVFSSAMGRLDGTQVITPPQPVNGWSNNTFQMKRTNSSSSISSIDTSDQIQRSINNISSSLADVAQDAMFQVTYVLNQPEQRHLVDRRADLVFRASAAQLDLVIEEFNAGRDVSGTMDACTQMLFILMGGVETEHGLEPLNASPDTVKAIISSVLRCIIQIGNTESGYGMARSLNRLAMRLIYRVELSNLLCGLILAMTESLQMNTGITELVSKLSSKWCDELEKRRAQLRASDIVDSFNAFYVCALTELKMDISDSHILIVDNYLERVILQQGDVVLDAARRLSRPHMHLTSMINKILQMMRERKIDPIMPGTLEARMPQEDEAVVVRSGVQVSIDNILRDTSMAVKHIEQLNILIASSDRSWNEYMEYLKNNPMGELIKELVGECSRKKRIDFNLSHVVKSSMAVFKAMAATGPVQEEGRITPTDINRMDTMIVGTPLSRGDATITRARGNMIRPKRTTLSRDQMANIRHTLDRVKNH
B2: PLK-1::GFP, P34331 1-648 (enzyme)
chain: MNRLPNIAKPPQKSNQRKEKAPPEVPALIADKDRGTYYEKGRFLGKGGFAHCYELTNRATREVVAGKVVPKSMLVKQYQRDKMTQEVQIHRELGHINIVKLFNFFEDNLNVYITLELCARRSLMELHKRRKAVTEPEARYFTHQIVDGVLYLHDLNIIHRDMKLGNLFLNDDLVVKIGDFGLATTVNGDERKKTLCGTPNYIAPEVLNKAGHSFEVDIWAVGCILYILLFGQPPFESKSLEETYSRIRHNNYTIPSIATQPAASLIRKMLDPEPTRRPTAKQVQRDGFFKSGFMPTRLPVSCLTMVPKFGGHETSMMEENVAPRGVDARSQRPLNGRAGLSALPQHIVSNNADRERAQQQAAEATFREPEDAYLSQLFHQVAVLLEQRIPGLEEEEAALDGYQSPECLPVFWISKWVDYSDKYGIGYQLCDNSVGVLFNDNSRIMLDQAGNELTYIEKSNKEHYFSMHSGEMPGLLNKKVTLLKYFRSYMNDHLVKAGEGSEQRAGDDLARLPTLRVWFRTKSAIVLHLSNGTVQINFFNDHVKMMMCPLMQAVTFIDQNKRMLTYKLNNLQRNGCPEKFLHRLKYAKTMIERLMSDANVVSQNPARQPDMPRSMAAARSASAGSRGPNQAASHLPQSASGSNIHPRR
B3: EB1-GFP (natural protein, UniProt Q15691 1-268, looked up)
chain: MAVNVYSTSVTSDNLSRHDMLAWINESLQLNLTKIEQLCSGAAYCQFMDMLFPGSIALKKVKFQAKLEHEYIQNFKILQAGFKRMGVDKIIPVDKLVKGKFQDNFEFVQWFKKFFDANYDGKDYDPVAARQGQETAVAPSLVAPALNKPKKPLTSSSAAPQRPISTQRTAAAPKAGPGVVRKNPGVGNGDDEAAELMQQVNVLKLTVEDLEKERDFYFGKLRNIELICQENEGENDPVLQRIVDILYATDEGFVIPDEGGPQEEQEEY
B4: GFP::SPD-2 (natural protein, C. elegans, UniProt P91870 1-824, looked up)
chain: MEDDAPMNLCNEQFEEIEDSPIDDNDNESFYNADGDVELEEEEVHETPKNFKNGGRFKTNMTNPKVNDLTTIEEKNEDLRSAASSRSASRPASVMSDKSFSSQFEFQSGGENAIEEYTNQVFADENKADLLFPETSKFMNGASPPKDKHHSWEPSIHHYDKQPPPDIQTNSPVFGNLNHRKNKLIPQARAKPGANDNEIVERDNDENVPTTSDKSAFITSPMNSTNHDEKTSTPKRPTNRKIGQYQGPNFDLSSIYVGSPQHQNTSISTGQQMPTSSYSHAHSETMMTNQTINESMVRRVLNGNNKNQDLFAALEEARKRRAAQPSKPDFRINTTRTRVPIKPTSARHSGNVVSSTSNDNTTAASSKDLTTSRKAMETFRQNASMADATNSNTASMTSILSTISTARTDISRSSRNHGGGFSNTSVSTVIPANNGNVSLSHGRDGRDSVSSVRTMSRASSTSTVYAGSTFSGVSKPLRIHAKRVAFGCVAVGETLRVEVEVENISDRQCLVRASTDSTTPVYQILDNKLTMVDPKKSIKFQVSFSPSSVGRYQVIMSIEVPAQNFIHKIPMWGNGGIAKFVPTSPDLQQTINQSEYAMCTSCAKRISFKISNSAGTRDGFAMIKVFDSAMRQLPDGCVAFFPAPGFIVKKKSDKRVDIRIDSSYIDLHDENNFRTSSSLSTASTTSSFQRRILPGAKFFVHVVWGEETMRTRLRLLEVRTGQHQLIDGHDFTSFQFSDEEVLRAVPVGFPAIKPEDRDLFAASYRSFFINFFTSTTEFRAATSRKKKEICSNDDSTLLETTAFRNQTFVNDVTIVPNTRFSNRK

Columns and labels:
SPD-5::TagRFP = molecular target: T1, SPD-5::TagRFP; assay: partitioning into droplets by fluorescence microscopy
[1] = molecular target: T2, SPD-5::TagRFP (C. elegans), P91349; assay: as above; details: remark: other sources report otherwise

| Molecule | partition coefficient (droplet vs. bulk) (SPD-5::TagRFP) | partition coefficient (droplet vs. bulk) [1] |
| --- | --- | --- |
| TPXL-1::GFP (natural protein) | 59 | – |
| B1 | 101 | – |
| B2 | – | 19.8 |
| B3 | 3.2 | – |
| B4 | 67 | – |
